How the values were obtained:
TRBP-ΔC [1] = target: T1, TRBP-ΔC (UniProt Q15633-2 9-215); test: EMSA; apparent Kd; nH 1.9; 50 mM sodium cacodylate pH 7.0, 50 mM potassium glutamate, 5% glycerol; EMSA 0.5 pM RNA, 30 min at room temperature, gel 0.25X TBE at 10 C; CD at 10 C with 5-15 uM RNA; conditions: protein: recombinant; label: 5'-32P top strand (EMSA); blunt
T1 sequence: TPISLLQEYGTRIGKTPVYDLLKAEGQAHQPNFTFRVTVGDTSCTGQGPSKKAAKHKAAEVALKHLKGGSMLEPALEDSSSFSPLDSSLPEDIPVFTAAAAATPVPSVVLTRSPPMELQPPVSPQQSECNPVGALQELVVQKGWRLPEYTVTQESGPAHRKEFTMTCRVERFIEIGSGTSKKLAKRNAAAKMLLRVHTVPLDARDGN

TRBP-ΔC [2] = target: T1, TRBP-ΔC; test: EMSA; apparent Kd; nH 1.1; text gives error 0.1; 50 mM sodium cacodylate pH 7.0, 50 mM potassium glutamate, 5% glycerol; EMSA 0.5 pM RNA, 30 min at room temperature, gel 0.25X TBE at 10 C; CD at 10 C with 5-15 uM RNA; conditions: protein: recombinant; label: 5'-32P top strand; imperfect duplex with U-bulge and A-A mismatch
TRBP-ΔC [3] = target: T1, TRBP-ΔC; test: EMSA; apparent Kd; nH 1.6; 50 mM sodium cacodylate pH 7.0, 50 mM potassium glutamate, 5% glycerol; EMSA 0.5 pM RNA, 30 min at room temperature, gel 0.25X TBE at 10 C; CD at 10 C with 5-15 uM RNA; conditions: protein: recombinant; label: 5'-32P; hairpin with 1-nt U-bulge and A-A mismatch
TRBP-ΔC [4] = target: T1, TRBP-ΔC; test: EMSA; apparent Kd; nH 2.5; 50 mM sodium cacodylate pH 7.0, 50 mM potassium glutamate, 5% glycerol; EMSA 0.5 pM RNA, 30 min at room temperature, gel 0.25X TBE at 10 C; CD at 10 C with 5-15 uM RNA; conditions: protein: recombinant; label: 5'-32P; hairpin, 16 bp stem, U8 loop
TRBP-dsRBD2 [5] = target: T2, TRBP-dsRBD2 (UniProt Q15633-2 139-215); test: EMSA; apparent Kd; nH >2; text says bound; 50 mM sodium cacodylate pH 7.0, 50 mM potassium glutamate, 5% glycerol; EMSA 0.5 pM RNA, 30 min at room temperature, gel 0.25X TBE at 10 C; CD at 10 C with 5-15 uM RNA; conditions: protein: recombinant, label: 5'-32P, hairpin, 16 bp stem
T2 sequence: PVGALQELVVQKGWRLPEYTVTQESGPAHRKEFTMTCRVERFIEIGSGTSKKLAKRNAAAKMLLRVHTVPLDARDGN

TRBP-dsRBD1 [6] = target: T3, TRBP-dsRBD1 (UniProt Q15633-2 9-85); test: EMSA; apparent Kd; nH 1.3; 50 mM sodium cacodylate pH 7.0, 50 mM potassium glutamate, 5% glycerol; EMSA 0.5 pM RNA, 30 min at room temperature, gel 0.25X TBE at 10 C; CD at 10 C with 5-15 uM RNA; conditions: protein: recombinant, label: 5'-32P, hairpin, 16 bp stem
T3 sequence: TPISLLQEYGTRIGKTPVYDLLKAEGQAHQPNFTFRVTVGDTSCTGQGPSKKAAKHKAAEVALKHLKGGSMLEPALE

TRBP-ΔC [7] = target: T1, TRBP-ΔC; test: EMSA; apparent Kd; nH 3.1; 50 mM sodium cacodylate pH 7.0, 50 mM potassium glutamate, 5% glycerol; EMSA 0.5 pM RNA, 30 min at room temperature, gel 0.25X TBE at 10 C; CD at 10 C with 5-15 uM RNA; conditions: protein: recombinant; label: 5'-32P; hairpin, 16 bp stem, U6 loop
TRBP-dsRBD1 [8] = target: T3, TRBP-dsRBD1; test: EMSA; apparent Kd; nH 1.0; 50 mM sodium cacodylate pH 7.0, 50 mM potassium glutamate, 5% glycerol; EMSA 0.5 pM RNA, 30 min at room temperature, gel 0.25X TBE at 10 C; CD at 10 C with 5-15 uM RNA; conditions: protein: recombinant, label: 5'-32P, hairpin, 16 bp stem
TRBP-ΔC [9] = target: T1, TRBP-ΔC; test: EMSA; apparent Kd; nH 3.2 (1.4 in loop section); 50 mM sodium cacodylate pH 7.0, 50 mM potassium glutamate, 5% glycerol; EMSA 0.5 pM RNA, 30 min at room temperature, gel 0.25X TBE at 10 C; CD at 10 C with 5-15 uM RNA; conditions: protein: recombinant; label: 5'-32P top strand (EMSA); blunt
TRBP-ΔC [10] = target: T1, TRBP-ΔC; test: EMSA; apparent Kd; nH 2.7; 50 mM sodium cacodylate pH 7.0, 50 mM potassium glutamate, 5% glycerol; EMSA 0.5 pM RNA, 30 min at room temperature, gel 0.25X TBE at 10 C; CD at 10 C with 5-15 uM RNA; conditions: protein: recombinant; label: 5'-32P top strand; duplex with 1x1 A-A mismatch
TRBP-ΔC [11] = target: T1, TRBP-ΔC; test: EMSA; apparent Kd; nH 5; 50 mM sodium cacodylate pH 7.0, 50 mM potassium glutamate, 5% glycerol; EMSA 0.5 pM RNA, 30 min at room temperature, gel 0.25X TBE at 10 C; CD at 10 C with 5-15 uM RNA; conditions: protein: recombinant; label: 5'-32P top strand; duplex with 1-nt U-bulge
TRBP-ΔC [12] = target: T1, TRBP-ΔC; test: EMSA; apparent Kd; nH 1.1; 50 mM sodium cacodylate pH 7.0, 50 mM potassium glutamate, 5% glycerol; EMSA 0.5 pM RNA, 30 min at room temperature, gel 0.25X TBE at 10 C; CD at 10 C with 5-15 uM RNA; conditions: protein: recombinant; label: 5'-32P; hairpin, 16 bp stem, UUCG loop
TRBP-dsRBD2 [13] = target: T2, TRBP-dsRBD2; test: EMSA; apparent Kd; nH 2.4; 50 mM sodium cacodylate pH 7.0, 50 mM potassium glutamate, 5% glycerol; EMSA 0.5 pM RNA, 30 min at room temperature, gel 0.25X TBE at 10 C; CD at 10 C with 5-15 uM RNA; conditions: protein: recombinant; label: 5'-32P; hairpin, 16 bp stem, UUCG loop
TRBP-ΔC [14] = target: T1, TRBP-ΔC; test: EMSA; apparent Kd; nH 4.1; 50 mM sodium cacodylate pH 7.0, 50 mM potassium glutamate, 5% glycerol; EMSA 0.5 pM RNA, 30 min at room temperature, gel 0.25X TBE at 10 C; CD at 10 C with 5-15 uM RNA; conditions: protein: recombinant; label: 5'-32P; hairpin, 16 bp stem, U4 loop
TRBP-dsRBD2 [15] = target: T2, TRBP-dsRBD2; test: EMSA; apparent Kd; nH 2.7; 50 mM sodium cacodylate pH 7.0, 50 mM potassium glutamate, 5% glycerol; EMSA 0.5 pM RNA, 30 min at room temperature, gel 0.25X TBE at 10 C; CD at 10 C with 5-15 uM RNA; conditions: protein: recombinant
TRBP-dsRBD1 [16] = target: T3, TRBP-dsRBD1; test: EMSA; apparent Kd; nH 1.5; 50 mM sodium cacodylate pH 7.0, 50 mM potassium glutamate, 5% glycerol; EMSA 0.5 pM RNA, 30 min at room temperature, gel 0.25X TBE at 10 C; CD at 10 C with 5-15 uM RNA; conditions: protein: recombinant; label: 5'-32P top strand (EMSA); blunt
TRBP-ΔC [17] = target: T1, TRBP-ΔC; test: EMSA; apparent Kd; nH 4; 50 mM sodium cacodylate pH 7.0, 50 mM potassium glutamate, 5% glycerol; EMSA 0.5 pM RNA, 30 min at room temperature, gel 0.25X TBE at 10 C; CD at 10 C with 5-15 uM RNA; conditions: protein: recombinant; label: 5'-32P top strand (EMSA); blunt
TRBP-ΔC [18] = target: T1, TRBP-ΔC; test: EMSA; apparent Kd; nH >14; 50 mM sodium cacodylate pH 7.0, 50 mM potassium glutamate, 5% glycerol; EMSA 0.5 pM RNA, 30 min at room temperature, gel 0.25X TBE at 10 C; CD at 10 C with 5-15 uM RNA; conditions: protein: recombinant; label: 5'-32P top strand (EMSA); blunt
TRBP-dsRBD1 [19] = target: T3, TRBP-dsRBD1; test: EMSA; apparent Kd; nH 2.6; 50 mM sodium cacodylate pH 7.0, 50 mM potassium glutamate, 5% glycerol; EMSA 0.5 pM RNA, 30 min at room temperature, gel 0.25X TBE at 10 C; CD at 10 C with 5-15 uM RNA; conditions: protein: recombinant; label: 5'-32P top strand (EMSA); blunt
TRBP-dsRBD2 [20] = target: T2, TRBP-dsRBD2; test: EMSA; apparent Kd; nH 4.3; 50 mM sodium cacodylate pH 7.0, 50 mM potassium glutamate, 5% glycerol; EMSA 0.5 pM RNA, 30 min at room temperature, gel 0.25X TBE at 10 C; CD at 10 C with 5-15 uM RNA; conditions: protein: recombinant; label: 5'-32P top strand (EMSA); blunt
TRBP-dsRBD1 [21] = target: T3, TRBP-dsRBD1; test: EMSA; apparent Kd; nH 2.9; 50 mM sodium cacodylate pH 7.0, 50 mM potassium glutamate, 5% glycerol; EMSA 0.5 pM RNA, 30 min at room temperature, gel 0.25X TBE at 10 C; CD at 10 C with 5-15 uM RNA; conditions: protein: recombinant; label: 5'-32P top strand (EMSA); blunt
TRBP-ΔC [22] = target: T1, TRBP-ΔC; test: EMSA; apparent Kd; nH >12; 50 mM sodium cacodylate pH 7.0, 50 mM potassium glutamate, 5% glycerol; EMSA 0.5 pM RNA, 30 min at room temperature, gel 0.25X TBE at 10 C; CD at 10 C with 5-15 uM RNA; conditions: protein: recombinant; label: 5'-32P top strand (EMSA); blunt
TRBP-dsRBD2 [23] = target: T2, TRBP-dsRBD2; test: EMSA; apparent Kd; nH 3.1; 50 mM sodium cacodylate pH 7.0, 50 mM potassium glutamate, 5% glycerol; EMSA 0.5 pM RNA, 30 min at room temperature, gel 0.25X TBE at 10 C; CD at 10 C with 5-15 uM RNA; conditions: protein: recombinant; label: 5'-32P top strand (EMSA); blunt

B1: ds12 (dsRNA)
RNA 1: GUCAGCAGUGCC
RNA 2: GGCACUGCUGAC
Kd (TRBP-ΔC [1]): 2000 ± 300 nM

B2: miR-16-1/miR-16-1* (dsRNA)
RNA 1: UAGCAGCACGUAAAUAUUGGCG
RNA 2: CCAGUAUUAACUGUGCUGCUGAA
Kd (TRBP-ΔC [2]): 1100 ± 10 nM

B3: pre-mir-16-1 (structured_RNA)
RNA: UAGCAGCACGUAAAUAUUGGCGUUAAGAUUCUAAAAUUAUCUCCAGUAUUAACUGUGCUGCUGAA
Kd (TRBP-ΔC [3]): 610 ± 20 nM

B4: ds16-octa-U (structured_RNA)
RNA: GUCAGCAGUGCCUUAGUUUUUUUUCUAAGGCACUGCUGAC
Kd (TRBP-ΔC [4]): 410 ± 50 nM
Kd (TRBP-dsRBD2 [5]; U8 loop): > 6000 nM
Kd (TRBP-dsRBD1 [6]; U8 loop): 8000 ± 3000 nM

B5: ds16-hexa-U (structured_RNA)
RNA: GUCAGCAGUGCCUUAGUUUUUUCUAAGGCACUGCUGAC
Kd (TRBP-dsRBD2 [5]; U6 loop): > 4000 nM
Kd (TRBP-ΔC [7]): 610 ± 50 nM
Kd (TRBP-dsRBD1 [8]; U6 loop): 10000 ± 3000 nM

B6: ds16 (dsRNA)
RNA 1: GUCAGCAGUGCCUUAG
RNA 2: CUAAGGCACUGCUGAC
Kd (TRBP-ΔC [9]): 800 ± 70 nM

B7: A-mismatch (dsRNA)
RNA 1: GGUCAGCACGUAAAUAUUGUCC
RNA 2: GGACAGUAUUAACGUGCUGUAC
Kd (TRBP-ΔC [10]): 1780 ± 80 nM

B8: U-bulge (dsRNA)
RNA 1: GGUCAGCACGUAAAUAUUGUCC
RNA 2: GGACAGUAUUUACUGUGCUGAUC
Kd (TRBP-ΔC [11]): 300 ± 30 nM

B9: ds16-tetra-stable (structured_RNA)
RNA: GUCAGCAGUGCCUUAGUUCGCUAAGGCACUGCUGAC
Kd (TRBP-ΔC [12]): 500 ± 50 nM
Kd (TRBP-dsRBD1 [6]; UUCG loop): 9000 ± 1000 nM
Kd (TRBP-dsRBD2 [13]): 5000 ± 700 nM

B10: ds16-tetra-U (structured_RNA)
RNA: GUCAGCAGUGCCUUAGUUUUCUAAGGCACUGCUGAC
Kd (TRBP-ΔC [14]): 700 ± 50 nM
Kd (TRBP-dsRBD2 [15]; label: 5'-32P, hairpin, 16 bp stem, U4 loop): 4000 ± 900 nM
Kd (TRBP-dsRBD1 [8]; U4 loop): 7000 ± 900 nM

B11: ds22 (dsRNA)
RNA 1: GUCAGCAGUGCCUUAGCAGCAC
RNA 2: GUGCUGCUAAGGCACUGCUGAC
Kd (TRBP-dsRBD2 [15]; label: 5'-32P top strand (EMSA), blunt): 1700 ± 100 nM
Kd (TRBP-dsRBD1 [16]): 3500 ± 200 nM
Kd (TRBP-ΔC [17]): 600 ± 50 nM

B12: ds44 (dsRNA)
RNA 1: GGUCAGCAGUGCCUUAGCAGCACGUAAAUAUUGGCGUUAAGACC
RNA 2: GGUCUUAACGCCAAUAUUUACGUGCUGCUAAGGCACUGCUGACC
Kd (TRBP-ΔC [18]): 60 ± 10 nM
Kd (TRBP-dsRBD1 [19]): 800 ± 50 nM
Kd (TRBP-dsRBD2 [20]): 800 ± 60 nM

B13: ds33 (dsRNA)
RNA 1: GGUCAGCAGUGCCUUAGCAGCACGUAAAUAUGG
RNA 2: CCAUAUUUACGUGCUGCUAAGGCACUGCUGACC
Kd (TRBP-dsRBD1 [21]): 900 ± 300 nM
Kd (TRBP-ΔC [22]): 200 ± 20 nM
Kd (TRBP-dsRBD2 [23]): 1000 ± 80 nM

From article PMC4301919, “Helical Defects in MicroRNA Influence Protein Binding by TAR RNA Binding Protein”
